Results on two molecules are retold here after article PMC9347012, “Regulation of tomato fruit elongation by transcription factor BZR1.7 through promotion of SUN gene expression”.

The target in this data set is BZR1.7 (His-6-MBP-BZR1.7) (Solanum lycopersicum, UniProt A0A3Q7IIT4 1-180). As to the kind of experiment: EMSA; EMSA: 20 uL binding reaction buffer (composition not given), 40 min at 4 °C in the dark; 6% native PAGE, 0.5x TBE, 4 °C; pH and salt not given. Particulars: protein: recombinant; tags: His6-MBP, N-terminal; label: 5'-FAM (on one strand; partner unlabeled); blunt. On the technique in general: A gel shift assay detects complexes by their altered migration in electrophoresis.
BZR1.7 (His-6-MBP-BZR1.7), sequence (A0A3Q7IIT4 entry or part of it): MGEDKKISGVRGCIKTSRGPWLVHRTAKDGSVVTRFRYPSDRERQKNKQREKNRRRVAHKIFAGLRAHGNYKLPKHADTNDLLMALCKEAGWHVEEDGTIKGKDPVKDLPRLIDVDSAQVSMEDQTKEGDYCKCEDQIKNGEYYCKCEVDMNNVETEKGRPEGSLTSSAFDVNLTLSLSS

B1: E-box-wt probe (SUN promoter, 42 bp) (dsDNA)
DNA 1: TGTCCATCAAGACCGAAACAAATGAGAAAAATCACCTAGTGT
DNA 2: ACACTAGGTGATTTTTCTCATTTGTTTCGGTCTTGATGGACA
Take B1: the binding result is listed as “binds”.

B2: E-box-mt probe (CAAATG to TCGCGA) (dsDNA)
DNA 1: TGTCCATCAAGACCGAAATCGCGAAGAAAAATCACCTAGTGT
DNA 2: ACACTAGGTGATTTTTCTTCGCGATTTCGGTCTTGATGGACA
As to B2, the binding result is “no binding”.
